Measurements as given in paper PMC12915131, “Balanced Expression of the Diiron Oxygenase BioE Is Essential for Biotin Homeostasis in Elizabethkingia meningoseptica”.

Biological target: BioL (EmBioL), MocR-family repressor (Elizabethkingia meningoseptica, UniProt A0A1T3FDC7 1-495)
Test: EMSA; PLP in protein elution buffer; 5 mM Mg2+; EMSA: 20 mM Tris-HCl pH 8.0, 50 mM KCl, 5 mM MgCl2, 1 mM DTT, 5% glycerol, room temperature 20 min; 5% native PAGE, GelRed stain
Conditions: protein: recombinant; tags: tag-free after Ulp1 cleavage of GST-SUMO; chain copies: 2; blunt

B1: PbioB probe (dsDNA)
DNA 1: TGCTTTTATCAAACTCATGTGTAATTACTCTGGTAATCTATATGATTAAGATTTAGAAG
DNA 2: CTTCTAAATCTTAATCATATAGATTACCAGAGTAATTACACATGAGTTTGATAAAAGCA
Does B1 bind?
Result: binds

B2: PbioE probe (dsDNA)
DNA 1: TTTTAAATCTGGTACCATTTAAGGTCCGGCAAGATAATAATTTTGCTTCAAAAAAGAG
DNA 2: CTCTTTTTTGAAGCAAAATTATTATCTTGCCGGACCTTAAATGGTACCAGATTTAAAA
Does B2 bind?
Result: binds
